Data from US20140087995A1 (published 2014).
Numbered stars: 1 amine (or outer) side, 2 acyl side, 3 side chain; on linkers, the order of the positions; unused ones are H or OH. Bridge positions count the residues as written; N and C are the ends. Side chains are listed from the residue outwards. Ends that are not written are not given here. * marks the point of attachment. C20 diacid = O=C(O)CCCCCCCCCCCCCCCCCCC(=O)*; γGlu = O=C(O)[C@H](CCC(=O)[*:2])N[*:1]

T1: human amylin receptor (amylin 3(a) receptor: human calcitonin receptor plus RAMP-3) (human, UniProt P30988 25-474; O60896 24-148, limits assumed)
T1 sequence (looked up) 1: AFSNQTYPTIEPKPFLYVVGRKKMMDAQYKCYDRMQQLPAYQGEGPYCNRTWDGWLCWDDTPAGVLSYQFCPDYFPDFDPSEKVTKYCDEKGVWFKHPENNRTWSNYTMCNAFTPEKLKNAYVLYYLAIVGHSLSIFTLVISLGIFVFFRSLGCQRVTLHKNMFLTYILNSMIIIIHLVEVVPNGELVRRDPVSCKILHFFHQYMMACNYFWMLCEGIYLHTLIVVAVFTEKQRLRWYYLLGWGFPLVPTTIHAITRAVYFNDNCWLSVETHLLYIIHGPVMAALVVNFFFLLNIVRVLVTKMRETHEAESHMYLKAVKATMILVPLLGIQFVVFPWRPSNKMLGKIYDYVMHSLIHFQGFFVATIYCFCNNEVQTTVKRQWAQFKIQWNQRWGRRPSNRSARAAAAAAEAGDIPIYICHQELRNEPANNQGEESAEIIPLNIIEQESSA
T1 sequence (looked up) 2: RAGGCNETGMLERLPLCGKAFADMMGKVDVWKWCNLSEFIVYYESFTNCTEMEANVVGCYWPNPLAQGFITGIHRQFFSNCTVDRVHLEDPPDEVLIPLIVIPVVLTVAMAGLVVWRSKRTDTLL

T2: human calcitonin receptor (human, UniProt P30988 25-474)
T2 sequence (looked up): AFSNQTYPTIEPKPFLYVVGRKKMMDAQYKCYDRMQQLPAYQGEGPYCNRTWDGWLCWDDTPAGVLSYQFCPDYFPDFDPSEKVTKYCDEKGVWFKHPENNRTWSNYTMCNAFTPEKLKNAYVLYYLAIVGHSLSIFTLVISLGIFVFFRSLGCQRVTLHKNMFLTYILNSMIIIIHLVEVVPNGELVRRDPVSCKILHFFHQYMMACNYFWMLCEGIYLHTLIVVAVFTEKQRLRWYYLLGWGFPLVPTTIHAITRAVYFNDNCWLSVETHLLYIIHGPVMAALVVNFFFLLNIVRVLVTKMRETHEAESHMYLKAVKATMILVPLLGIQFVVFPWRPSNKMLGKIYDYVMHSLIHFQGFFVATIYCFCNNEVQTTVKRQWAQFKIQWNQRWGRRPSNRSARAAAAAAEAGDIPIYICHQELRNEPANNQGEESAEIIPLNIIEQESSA

B1: N^α1-[2-[2-[2-[[2-[2-[2-[[(4S)-4-carboxy-4-(19-carboxynonadecanoylamino)butanoyl]amino]ethoxy]ethoxy]acetyl]amino]ethoxy]ethoxy]acetyl]-[Arg17,Pro21,Pro27]-h-am … (peptide)
peptide: KCNTATCATQRLANFLRHSSPNFGAIPSSTNVGSNTY
modifications: C20 diacid-gGlu-2xOEG on the alpha amino group of the N-terminal residue; disulfide bridge Cys2-Cys7; C-terminal amide
notes: Synthetic acylated analogue of human amylin; also called compound 24
B2: N^α1-[(4S)-4-carboxy-4-(19-carboxynonadecanoylamino)butanoyl]-[Glu14,Arg17,Pro21,Pro27,Arg35]-h-amylin (peptide)
peptide: {C20 diacid-γGlu}-KCNTATCATQRLAEFLRHSSPNFGAIPSSTNVGSRTY-NH2
modifications: disulfide 2-7
SMILES: CC[C@H](C)[C@H](NC(=O)[C@H](C)NC(=O)CNC(=O)[C@H](Cc1ccccc1)NC(=O)[C@H](CC(N)=O)NC(=O)[C@@H]1CCCN1C(=O)[C@H](CO)NC(=O)[C@H](CO)NC(=O)[C@H](Cc1c[nH]cn1)NC(=O)[C@H](CCCNC(=N)N)NC(=O)[C@H](CC(C)C)NC(=O)[C@H](Cc1ccccc1)NC(=O)[C@H](CCC(=O)O)NC(=O)[C@H](C)NC(=O)[C@H](CC(C)C)NC(=O)[C@H](CCCNC(=N)N)NC(=O)[C@H](CCC(N)=O)NC(=O)[C@@H](NC(=O)[C@H](C)NC(=O)[C@@H]1CSSC[C@H](NC(=O)[C@H](CCCCN)NC(=O)CC[C@H](NC(=O)CCCCCCCCCCCCCCCCCCC(=O)O)C(=O)O)C(=O)N[C@@H](CC(N)=O)C(=O)N[C@@H]([C@@H](C)O)C(=O)N[C@@H](C)C(=O)N[C@@H]([C@@H](C)O)C(=O)N1)[C@@H](C)O)C(=O)N1CCC[C@H]1C(=O)N[C@@H](CO)C(=O)N[C@@H](CO)C(=O)N[C@H](C(=O)N[C@@H](CC(N)=O)C(=O)N[C@H](C(=O)NCC(=O)N[C@@H](CO)C(=O)N[C@@H](CCCNC(=N)N)C(=O)N[C@H](C(=O)N[C@@H](Cc1ccc(O)cc1)C(N)=O)[C@@H](C)O)C(C)C)[C@@H](C)O
notes: Synthetic acylated analogue of human amylin; also called compound 16
B3: N^α1-[(4S)-4-carboxy-4-(19-carboxynonadecanoylamino)butanoyl]-[Arg17,Pro21,Pro27,Glu35]-h-amylin (peptide)
peptide: KCNTATCATQRLANFLRHSSPNFGAIPSSTNVGSETY
modifications: C20 diacid-gGlu on the alpha amino group of the N-terminal residue; disulfide bridge Cys2-Cys7; C-terminal amide
notes: Synthetic acylated analogue of human amylin; also called compound 23
B4: N^α1-[(4S)-4-carboxy-4-(19-carboxynonadecanoylamino)butanoyl]-[Arg17,Pro21,Pro27,Arg34]-h-amylin (peptide)
peptide: KCNTATCATQRLANFLRHSSPNFGAIPSSTNVGRNTY
modifications: C20 diacid-gGlu on the alpha amino group of the N-terminal residue; disulfide bridge Cys2-Cys7; C-terminal amide
notes: Synthetic acylated analogue of human amylin; also called compound 39
B5: N^ε1-[(4S)-4-carboxy-4-[[(4S)-4-carboxy-4-(19-carboxynonadecanoylamino)butanoyl]amino]butanoyl]-[Asp14,Arg17,Pro21,Pro27,Arg35]-h-amylin (peptide)
peptide: K([γGlu-γGlu-C20 diacid])CNTATCATQRLADFLRHSSPNFGAIPSSTNVGSRTY-NH2
modifications: disulfide 2-7; N-terminus assumed
SMILES: CC[C@H](C)[C@H](NC(=O)[C@H](C)NC(=O)CNC(=O)[C@H](Cc1ccccc1)NC(=O)[C@H](CC(N)=O)NC(=O)[C@@H]1CCCN1C(=O)[C@H](CO)NC(=O)[C@H](CO)NC(=O)[C@H](Cc1c[nH]cn1)NC(=O)[C@H](CCCNC(=N)N)NC(=O)[C@H](CC(C)C)NC(=O)[C@H](Cc1ccccc1)NC(=O)[C@H](CC(=O)O)NC(=O)[C@H](C)NC(=O)[C@H](CC(C)C)NC(=O)[C@H](CCCNC(=N)N)NC(=O)[C@H](CCC(N)=O)NC(=O)[C@@H](NC(=O)[C@H](C)NC(=O)[C@@H]1CSSC[C@H](NC(=O)[C@@H](N)CCCCNC(=O)CC[C@H](NC(=O)CC[C@H](NC(=O)CCCCCCCCCCCCCCCCCCC(=O)O)C(=O)O)C(=O)O)C(=O)N[C@@H](CC(N)=O)C(=O)N[C@@H]([C@@H](C)O)C(=O)N[C@@H](C)C(=O)N[C@@H]([C@@H](C)O)C(=O)N1)[C@@H](C)O)C(=O)N1CCC[C@H]1C(=O)N[C@@H](CO)C(=O)N[C@@H](CO)C(=O)N[C@H](C(=O)N[C@@H](CC(N)=O)C(=O)N[C@H](C(=O)NCC(=O)N[C@@H](CO)C(=O)N[C@@H](CCCNC(=N)N)C(=O)N[C@H](C(=O)N[C@@H](Cc1ccc(O)cc1)C(N)=O)[C@@H](C)O)C(C)C)[C@@H](C)O
notes: Synthetic acylated analogue of human amylin; also called compound 52

Key:
[1] = molecular target: T1, human amylin receptor (amylin 3(a) …); assay: cell-based or functional assay
[2] = molecular target: T2, human calcitonin receptor; assay: cell-based or functional assay

Binder | Ratio hCT/hAmylin funct. [1] | hAmylin-R funct. EC50 [1] | hCTR funct. EC50 [2]
B1 | 23.1 ratio | 0.433 nM | 10 nM
B2 | 6.1 ratio | 0.363 nM | 2.21 nM
B3 | 8.9 ratio | 0.34 nM | 3.02 nM
B4 | 11.6 ratio | 0.217 nM | 2.52 nM
B5 | – | – | 14.1 nM
